The text below walks through data of patent US7449185 (Daiichi Sankyo, dated 2008).

In assay [1] the target is T1, OCIF, monomer type (60 kDa) (human, UniProt O00300 22-401, limits assumed, 125I on tyrosine residues (Iodogen method)).
T1 construct: Monomer type of rOCIF, 60 kDa; also called monomer-form OCIF
T1 sequence (looked up): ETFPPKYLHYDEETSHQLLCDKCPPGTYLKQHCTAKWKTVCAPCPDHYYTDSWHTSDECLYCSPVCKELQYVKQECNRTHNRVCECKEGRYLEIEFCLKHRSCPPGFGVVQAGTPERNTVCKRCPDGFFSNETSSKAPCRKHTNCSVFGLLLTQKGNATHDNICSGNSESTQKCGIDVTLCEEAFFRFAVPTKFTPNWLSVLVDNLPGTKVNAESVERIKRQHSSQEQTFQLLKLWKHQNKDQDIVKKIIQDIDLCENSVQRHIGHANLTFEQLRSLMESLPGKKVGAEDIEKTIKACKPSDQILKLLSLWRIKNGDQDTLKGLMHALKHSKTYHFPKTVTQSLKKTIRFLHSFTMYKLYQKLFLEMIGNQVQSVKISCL
The assay can be described thus: Scatchard plot of 125I-OCIF binding to ST2 cells (passage about 10) cultured with vitamin D3 and dexamethasone. The procedure:
Solutions for measuring non-specific binding were prepared by further adding 400-fold concentration of monomer-form OCIF to these solutions. […] The results were subjected to Scatchard Plot analysis to determine the dissociation constant of OCIF and OCIF-binding protein and the number (site) of OCIF-binding protein per a ST2 cell. […] Based on the finding in Example 5(1) that osteoclasts-formation supported by the ST2 cells with passage number about 40 was more extensive than that with passage number about 10, the number (the site) of the protein of the present invention expressed on the ST2 cell with a passage number about 40 was assessed.

In assay [2] the target is T2, osteoclastogenesis inhibitory factor (OCIF), recombinant, monomer or dimer type not specified at the place of … (human, UniProt O00300 22-401, 125I on tyrosine residues where used as 125I-labeled OCIF (Iodogen method)).
T2 construct: Secreted protein, about 60 kDa as monomer and 120 kDa as dimer; also called recombinant OCIF
T2 sequence (looked up): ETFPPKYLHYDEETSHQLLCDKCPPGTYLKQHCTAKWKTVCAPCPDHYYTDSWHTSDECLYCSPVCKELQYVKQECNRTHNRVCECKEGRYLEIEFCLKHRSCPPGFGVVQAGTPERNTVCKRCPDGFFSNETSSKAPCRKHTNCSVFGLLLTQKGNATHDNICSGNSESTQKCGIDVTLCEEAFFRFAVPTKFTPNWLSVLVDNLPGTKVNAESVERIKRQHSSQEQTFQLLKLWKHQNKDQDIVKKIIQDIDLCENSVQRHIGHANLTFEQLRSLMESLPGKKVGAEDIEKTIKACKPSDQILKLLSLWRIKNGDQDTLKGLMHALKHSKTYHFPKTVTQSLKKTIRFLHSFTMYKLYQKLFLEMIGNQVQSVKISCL
Description: Scatchard plot of labeled OCIF on cell membrane (told in the general description).

B1: natural OCIF-binding protein (mouse OBM) on mouse osteoblastic stromal ST2 cells cultured with active-form vitamin D3 and dexamethasone (ligand)
chain: MRRASRDYGKYLRSSEEMGSGPGVPHEGPLHPAPSAPAPAPPPAASRSMFLALLGLGLGQVVCSIALFLYFRAQMDPNRISEDSTHCFYRILRLHENAGLQDSTLESEDTLPDSCRRMKQAFQGAVQKELQHIVGPQRFSGAPAMMEGSWLDVAQRGKPEAQPFAHLTINAASIPSGSHKVTLSSWYHDRGWAKISNMTLSNGKLRVNQDGFYYLYANICFRHHETSGSVPTDYLQLMVYVVKTSIKIPSSHNLMKGGSTKNWSGNSEFHFYSINVGGFFKLRAGEEISIQVSNPSLLDPDQDATYFGAFKVQDID
notes: also called the protein of the present invention; OBM on ST2 cells
For B1, the Kd in assay [1] is 0.28 nM; in assay [2] it was 0.1 to 0.5 nM.
